A short description of this data set: yeast display, Sf9 membrane polyspecificity reagent, FACS + sequencing; frameworks hold sequencing errors. A digest of the protocol: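 Galactose induction of a Saccharomyces cerevisiae BJ5465 synthetic nanobody display library ran 36–48 hours. The cells were then stained for 1 hour at 4 °C with 10% biotinylated, detergent-solubilized Sf9 membrane reagent, pulled down on streptavidin microbeads and FACS-sorted into low and high (top ~1%) gates on expression and reagent-binding fluorescence. Labels for polyreactivity follow the gate of origin.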
Regarding “QVQLVESGGGLVQAGGSLRLSSAASGFTVKYNTMGSSRQAPGKEREMVAAISWDGTSTYYADSVKGRFTISRDYAKNTVYLQMNSLKPEDTAVYYCATDAVGAWWSYLSGYGYWGQGTQVTVSS”, the “polyreactivity (PSR sort gate)” value is reported as “high polyreactivity”. With “QVQLVESGGGLVQAGGSLRLICAASGSTFLKYTMVWYRQAPWKERELVAAISKSGGSTYYADSVKGRFTISRDHAKNTVYLQMNSLKPEDTAVYYCAKVRSWVSSYGYGYWGQGTQVTVSS” the entry was “high polyreactivity”; with “QVQLVESGGGLVQAGGSLRLSCAASGSTFYWYAMGWYRQAPGKERELVAAISSGGSTYYADSVKGRFTISRDNAKNTVYLQMNSLKPEDTAVYYCAAQTPYYLWYDTGDYWGQGTQVTVSS”, “high polyreactivity”. With “QVQLVESGGGLVQAGGSLRLSCAASGSTIFPYAMGWYRQAPGKERELVAAITSGGNTNYADSVKGRFTISRDNAKNTVYLQMNSLKPEDTAVYYCAADYFWHYRKYDYWGQGTQVTVSS” the entry was “low polyreactivity”. As for “QVQHVESGGGLVQAGGSLRLSCAASGFTSTVYAMGCYRQAPGKERELVASITWSGGRTYYADSVKGRFTISRDNAKNTVYFQMNSLKPEDTAVYYCAARTYSYGSILKYYYWGQGSQVTVSS”, the “polyreactivity (PSR sort gate)” value is listed as “high polyreactivity”. As for “QVQLVESGGGIVQAGGRLRLRCAASGSNFYYNAMGWYRQAPGKERELVAAITWSGGRTYYADSVKGRFTISRDNAKNTVYLQMNSLKPEDTAVYYCNARYRASRYNYWGQGTQVTVSS”, the “polyreactivity (PSR sort gate)” value is recorded as “high polyreactivity”.

On to “QVQLVESGGGLVQAGGSLRLSCAASGSTFSDNVMGWYRQAPGKERELVAGITRSGGRTYYADSVKGRFTISRDNAKNTVDLQMNSLKPEDTEVYYCAARRSGSKSGLFDYWGQGTQVTVSS”, for which the “polyreactivity (PSR sort gate)” value is given as “low polyreactivity”. With “QVQLVESGGGLVQAGGSLRLSCAASGIIFIYYTMGWYRQSPGKERELVAVITTSGDGTYYADSVKGRFTISRDNAKNTVYLQMNSLKPEDTAVYYCAASYSTWVSTRNDYWGQGTQVTVSS” the entry was “low polyreactivity”; with “QVQLVESGGGLVQAGGSLRLSCAASGSILFYYAMGWYRQAPGKERELVAAITWRGGSTYYADSVKGRFTISRDNAKNTVYLQMNSLKPEDTAVYYCAADLYWYRYYGYDYWGQGTQVTVSS”, “low polyreactivity”; with “QVQLVESGGGLVQAGGRIRLSCAASGSTYGLNAMGWYRQDPGNEREMVAAITFISGSTNYADSVKGRFSISRDNAKNTVYLQMNSLKPEDTAVYYCAGDSVYYAGYDDDYWGLGTQVTVSS”, “low polyreactivity”.

For “QVQLVESGAGLVQAGGSLRLTCAASGRIFVINAMGWLRQAPGKETELVAPITGGGSTNYADSVKGRFTISRDNAKNTVYLQMNSLKPEDTAVYYCAADYRPVRRFYYSRYDYWGQGTQVTVSS”, the “polyreactivity (PSR sort gate)” value is reported as “low polyreactivity”.

On to “QVQLVESGGGLVQAGGSLRLSCAASGSTFGYYAMGWYRQAPGKERELVAAITRRSGRTYYADSVKGRFTISRDNAKNTVYLQMNSLKPEDTAVYYCNKVYPTYYYYRGGPTEYDYWGQGTQVTVSS”, for which the “polyreactivity (PSR sort gate)” value is listed as “high polyreactivity”. In the case of “QVQLVESGGGLVQAGGSLRLSCDASGLTFAYYAMGWYRQEPGKERELVADISWNGGRTYYSDSVKGRFTISGYNAKNTVYLQMNSLKPEDSAVYYCAAQVTSSFYWGQGTQVTVSS” it was “high polyreactivity”; in that of “QVQLVESGGVLVQAGGSLRLSCAASGRIFIGYAMGGNRQAPGKERELVAAISSSGGRTYYADSVKGRFTISRDNAKYTVYLQMNSLKPEDSAVYYCAKSFTRNTDYEYWGQGTQVTVSS”, “high polyreactivity”; in that of “QVQLVESGGGLVQAGGSLRLSCAASGLTFTYYAMGWYRQAPGKERELVAAITGGARTYYADSVKGRFTISRDNAKNTVYLQMNSLKPEDTAVYYCATQGAQKRYKYNYWGQGTQVTVSS”, “high polyreactivity”. Take “QVQLVESGGGLVQAGGSLRLSCAASVSIFVRNAMGWYRPAPGKERELGAADSVKGRFTISRDNAKNTVYLQMNSLKPEDTAVYYCAADEWIVHDGYYSSYYYWGQGTQVTVSS”: the “polyreactivity (PSR sort gate)” value is reported as “low polyreactivity”. In the case of “QVQLVESGGGLVQAGGSLRLSCAASGSIFTFNAMGWYRQAPGKERELDAGISWRTSSTSYADSVKGRFTNSRDNAKNTVYLQMNSLKPEDTAVYYCATEDSWGYEEVDYWGQGTQVTVSS” it was “low polyreactivity”; in that of “QVQLVESGGGLVQAGGSLRLSCAASGFTFKYYVMGWYRQAPGKERELVASISKRGGSTRYADSVKGRFTISLDNAKNTVYLQMNSLKPEDTAVYYCAAEYWYYWEYEYWGQGTQVTVSS”, “high polyreactivity”. With “QVKLVEAGGGLVQAGGSLRFSCAASGNIFQGNARGWYREAPGKERELVAAITYSGAGTYYADSVKGRFTISRDNAKNSVYLQMNSLNPEDTAVYYSAADWYTFEYDYWGQGTQVTVSS” the entry was “low polyreactivity”; with “QVQLVESGGGLVQAGGSLRLSCAASGSTLGYYAMGWYRQAPGIVRELVAAISWSGGRTYYADSVKGRFTISRDYAKNTVYLQMKSLKPEDTAVYYCNALYRTHYTGSVYYSWGQGTQVSVSS”, “high polyreactivity”.

“QVQLVESGGGLVQAGGSLRLSCAASGRIYSFYAMGWYRQAPGKERELVAAITYTDGSTYADSVKGRFTISRDNAKNTVYLQLNSLKPEDTSVYYFATRYRWTPYDFWGQGTQVTVSS”: the “polyreactivity (PSR sort gate)” value is given as “low polyreactivity”.

As to “QVQLVESGGGLVQAGGSLRLSCAASGSIFTVYGMGWYRQAPGKERELVAAITCTSGGTYYADSVKGRFTISRDNAKNTVYLQMNSLKPEDTAVYYCNADGGSGAYLDLTITDYDYWGQGTQVTVSS”, the “polyreactivity (PSR sort gate)” value is on record as “low polyreactivity”.

For the sequence “QVQLLESGGGLVQAGGSLRLSCAASGSTFVGYAMGWYRQAPGKERELVAAISGSGTSTYYADSVKGRFTISRDNAKNTVYLQMNSLKPEDTAVYYCNADPIFVYSSYNYWGQGTQVTVSS”, the “polyreactivity (PSR sort gate)” value was “low polyreactivity”. For “QVQLVESGGGLVQAGGSLRLSCADYGYIFVGNAMGCYRQAPGKDRELVAAINSGGSTNYADSVKGRFTISRDNEKNTVYLQMNSLKPEDTAVYYCNAEAPRYNYGRMDYLGQGTQVTVSS”, the “polyreactivity (PSR sort gate)” value is “low polyreactivity”. In the case of “QVQLVESGGGLVQAGGSLRLSCAASGSTFWYYGMGWYRQAPGKEMELVARINWSTGRTYYADSVKGRFTISRDTAKNTVYLQMNSLKPEDTAVYYCNALNPYKGQEAHYDYWGQGTQVTVSS” it was “high polyreactivity”; in that of “QVQLVESGGGLVQAGGSLRLSCAASGRIFYHNAMGWYRQAPGKERELVAAIRWSGGSTYYADSEKGRFTISRDNAKNTVYLLMKSLKPEDTAVYYWATDVPIREIDEFGYWGQGTQVTVSS”, “low polyreactivity”; in that of “QVQLVESGGGLVQAGGSLRLSCAASGFTFHDYAMGWYRQAPGKERELVAAITKSGGRTYYADSVKGRFTISRDNAKNTVYLQMNSLKPEDTAVYYCNAVTLRRIYSNPEYDSWGQGTQVTVSS”, “high polyreactivity”. In the case of “QDQLVESAGGLVQAGGSLRLSCAATGLNLVPNTMGLYRQAPGKETQLVAAISYSGGGTYYADSVKGRFTISRDNAKNTVYLQMNSLKPEDTAVYYCAAYVKREYAPYGYWGQGTQVTVSS” it was “low polyreactivity”; in that of “QVQLVESGGGLVQAGGSLRLSCAASGRIFQYNVMGWYRKAPGKERELVASISDGVGTNYADSVKGRFTISRDNAKNTVYLQMNSLKPEDTAVYYCARDLDPGYQYTGPYDYWGQGTQVTVSS”, “low polyreactivity”; in that of “LVQLVESGGGIVQAGGSLRLTCAASGRTFWGYSMGWYRQSPGKERELVAAISWTGGRTYYADSVKGRFTISRDYAKNSVNLQMNSLKPEDTAVYDCARPYTTYDGRYHYWGQGTQVTVSS”, “high polyreactivity”. With “QVQLVETGGGLVQAGGSLRLSFAASGIISYHNAMGWYRQAPGKERELLAGITYSGGSTYYEDSVKGRFTISRVNAKNTVYLQMNSMKPEDTAVYFCAARVVYWTWSCLSKMDYWGQGTQVTVSS” the entry was “high polyreactivity”; with “QVQLVESGGGKVQAGGSLRLSCAATGRNFGVYDMGSYRHSPGKERELVAAITARGGSTYYADSVKGRFTISRDNAKNTVYLQMNSLKPEDTAVYYCAASAGSAGHSGGYWGQGTQVTVSS”, “high polyreactivity”; with “QVQLVESGGGLVQAGGSLRLSCAASGSIFRIYAMGWYRQAPGKERELVAAITKRGGSTYYADSVKGRFTISRDNAKNTVYLQMNSLKPEDTAVYYCAARFYSGYSYDYWGHGTQVTVSS”, “high polyreactivity”. In the case of “QVQLVESGGGLVQAGGSLRLSCAASGRIFYGYTMGWYRQAPGKERELVASITIRGSRTYYADSVKGRFTISRDNAKNTVYLQMNSLKPEDTAVYSCAADFVPARTVHRYDYWGQGTQVTVSS”, the “polyreactivity (PSR sort gate)” value was “low polyreactivity”. In the case of “QVQLVESGGGLVQAGGSLRLSCAASGFTFAYYAMGWYRQAAGKERELVAAITVSGASTYYADSVKGRFTISRDNAKNTDYLQMNRLKPEETAVYYCARYYAIVSGYYDDGYWGQGTQVTVSS”, the “polyreactivity (PSR sort gate)” value was “high polyreactivity”. In the case of “QVQLVESGGGLVQAGGSLRLSCAASGSTFVQYAMGWYRQAPGKERELVAAITSGGRTNYADSVNGRFTISRDNAKNTVYLQMNSLKPEDTAVYYCAARYGSNSPRRYEYYYWGQGTQVTVSS”, the “polyreactivity (PSR sort gate)” value was “low polyreactivity”. In the case of “QVQLVESGGGLVQAGGSLRLSCASSGRIFRNNVMGWYRQAHGKVRELVAAISATGTITRYADSVKGSFTISRDYSKNTVYLQMNSLKPEDTAVYYCAKDRGWWLGFIMDYWGQGSQVTVSS” it was “low polyreactivity”. As to “QVQHVESGGGLVQAGVSLRLSCAASGSTITYNAMGWYRQAPGKERELVAAITVSDGSTYYADSVKGRFTISRDNAKNTVYLQMNSLKPEDTAVYYCNAYAVYLRYLWYDYWGQGTQVTVSS”, the “polyreactivity (PSR sort gate)” value was “low polyreactivity”. In the case of “QVQLVESGGGLVQAGGSLRLSCAASGRTFKYYAMGWYRQAPGKERELVAGITYRDGRTYYADSVKGRFTISRDNAKNTVYLQMNSLKPEDTEVYYCAAERYSSPYWGMDYWGQGTQVTVSS” it was “high polyreactivity”; in that of “QDQLVESGGGLVQAGGSLRLSCAASGRTFRSYAMGWSRQAPGKERELVAAISTRGGSTYYADSVKGRFTISRDYAKNTVYLQMNSLKPEDTAVYYCAARGTPSARYGDWGQGTQVTVSS”, “high polyreactivity”; in that of “QVQLVESGGGLVQAGGSLRLSCAASGSTFNGYTMGCYRQAPGKEREFVATITFSDGSTYYADSVKGRFTISRDNAKNTVYLQMNSLKPEDTAVYYCNVDSPIGYDYWGQGTQVTVSS”, “low polyreactivity”.
